The target of experiment [1] is EV-D68 mature virion, strain US/MO/14-18947 (clade B) (enterovirus D68 strain US/MO/14-18947).
For experiment [2] the target is unchanged. As to the kind of experiment: BLI.

In experiment [1], “anti-EV-D68 MAb 8F12 (murine, IgG2b) (antibody)” displayed an IC50 of neutralization of EV-D68 strain 18947 on RD cells (cell viability, CellTiter-Glo) of 4 ng/mL and a neutralization concentration (lowest antibody concentration that fully inhibits cytopathic effect) against strain 18947 of 0.06 µg/mL.

Consider “anti-EV-D68 MAb 8F12 (murine, IgG2b) (from UniProt P01867)”, for which, in experiment [2], the Kd worked out at 0.92 nM and the dissociation rate constant (koff) came to 0.00035 s⁻¹.

Broadly, the Kd is the constant that tells how readily two partners part at equilibrium. Lower therefore signals tighter binding. A word on the koff: it is the first-order rate constant of dissociation. The low end stands for a long-lived complex, the high end for a short-lived complex.

The values are drawn from paper PMC8131599.
